The source of these data is PMC7824710.

For test [1], the target named is recombinant kinase domain of MKK7 (MKK7-KD), residues 101–405 (UniProt O14733). Description: other fluorescence titration; tryptophan fluorescence quenching at 334 nm; MKK7-KD at 1.25 µM in phosphate buffer pH 7.5, peptide 10 nM to 140 µM; fit log[inhibitor] vs. response, variable slope.
Test [2] has the same target. In words: other fluorescence titration; FITC fluorescence quenching; FITC-labelled peptide at 10 nM titrated with soluble MKK7-KD 0-1000 nM; 96-well black plates, 200 µL, excitation 488 nm, emission at 517 nm; one-site total fit.

Sequence of UniProt O14733 (O14733 101-405): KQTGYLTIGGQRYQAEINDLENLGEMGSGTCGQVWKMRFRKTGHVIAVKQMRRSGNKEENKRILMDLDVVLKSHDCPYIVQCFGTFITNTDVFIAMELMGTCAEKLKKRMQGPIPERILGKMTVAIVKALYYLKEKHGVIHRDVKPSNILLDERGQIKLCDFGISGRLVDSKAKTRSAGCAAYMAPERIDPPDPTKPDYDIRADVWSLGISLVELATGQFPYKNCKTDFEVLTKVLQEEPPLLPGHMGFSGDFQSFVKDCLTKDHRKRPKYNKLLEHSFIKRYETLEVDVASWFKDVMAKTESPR

As to “scramble (SCRB) peptide (Ac-D-Arg-D-Phe-D-Tyr-NH2)”, in test [1], the Kd is 41000 nM and the Δ Fluorescence at 334 nm (at concentrations above 10 µM) turned out to be 4 units. Take “DTP3 (Ac-D-Tyr-D-Arg-D-Phe-NH2) (peptide)”: in test [1], the Kd is 240 nM.

For FITC-βAla2-DTP3 (peptide), the Kd in test [2] came to 123 nM.

Usually Kd stands for the free concentration of one partner at which half of the binding sites on the other are occupied at equilibrium, for simple one-to-one binding.
